Publication PMC13138755, “Potential Rad54 separation of function mutation highlights unique roles during homologous recombination”

Biological target: T1, Rad54 (Saccharomyces cerevisiae, UniProt P32863 1-898)
T1 sequence: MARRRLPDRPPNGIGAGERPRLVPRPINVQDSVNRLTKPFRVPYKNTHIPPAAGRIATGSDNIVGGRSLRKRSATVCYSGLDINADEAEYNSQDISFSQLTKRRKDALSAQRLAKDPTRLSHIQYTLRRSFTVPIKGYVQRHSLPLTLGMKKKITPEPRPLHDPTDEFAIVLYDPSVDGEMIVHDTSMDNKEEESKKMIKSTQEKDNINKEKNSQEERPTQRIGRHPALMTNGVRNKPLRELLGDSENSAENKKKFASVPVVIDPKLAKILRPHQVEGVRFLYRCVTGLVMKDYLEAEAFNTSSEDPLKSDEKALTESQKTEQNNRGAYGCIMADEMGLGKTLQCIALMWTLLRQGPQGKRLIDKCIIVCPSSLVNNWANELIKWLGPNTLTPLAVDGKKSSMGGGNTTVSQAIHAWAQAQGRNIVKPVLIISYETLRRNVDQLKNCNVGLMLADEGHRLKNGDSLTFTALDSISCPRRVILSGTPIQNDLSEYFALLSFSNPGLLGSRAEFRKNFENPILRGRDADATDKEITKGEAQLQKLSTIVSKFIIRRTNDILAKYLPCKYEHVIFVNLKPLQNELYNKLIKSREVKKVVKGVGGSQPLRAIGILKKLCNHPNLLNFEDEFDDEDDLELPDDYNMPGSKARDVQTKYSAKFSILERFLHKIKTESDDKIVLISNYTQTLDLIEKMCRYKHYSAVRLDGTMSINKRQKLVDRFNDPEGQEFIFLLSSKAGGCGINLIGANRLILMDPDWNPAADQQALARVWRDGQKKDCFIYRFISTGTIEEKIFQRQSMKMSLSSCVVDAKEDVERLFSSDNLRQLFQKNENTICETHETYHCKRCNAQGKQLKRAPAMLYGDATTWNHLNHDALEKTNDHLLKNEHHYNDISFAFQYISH
Test: EMSA; apparent Kd; Hill fit; 3 mM Mg2+; EMSA: 35 mM Tris-Cl pH 7.5, 3 mM MgCl2, 50 mM KCl, 1 mM DTT, 10% glycerol, 10 nM DNA, 30 C, 5 min, 8% native PAGE in 0.5x TBE; DNA curtains: HR buffer (composition not given), 10 nM GFP-Rad54, flow 0.2 mL/min
Conditions: protein: recombinant; tags: GFP-GST (N-term); label: Atto647N 5' on strand 1; blunt

B1: 90 bp dsDNA (90-mer) (dsDNA)
DNA 1: GATGTTCTGCTGGATATGCACTTTTCCGGGCTGACGTACACCGTGCTCAGCCTGTTTTTCAGCGATCCGGATATGCATCCGCTGGATTTC
DNA 2: GAAATCCAGCGGATGCATATCCGGATCGCTGAAAAACAGGCTGAGCACGGTGTACGTCAGCCCGGAAAAGTGCATATCCAGCAGAACATC
Kd: 21 nM
